Here are results for two molecules from patent US20160208003A1 (AFFITECH RESEARCH, published 2016).

Assay [1] addresses T1, human CC chemokine receptor 4 (CCR4) (human, UniProt P51679 1-360).
T1 sequence (looked up): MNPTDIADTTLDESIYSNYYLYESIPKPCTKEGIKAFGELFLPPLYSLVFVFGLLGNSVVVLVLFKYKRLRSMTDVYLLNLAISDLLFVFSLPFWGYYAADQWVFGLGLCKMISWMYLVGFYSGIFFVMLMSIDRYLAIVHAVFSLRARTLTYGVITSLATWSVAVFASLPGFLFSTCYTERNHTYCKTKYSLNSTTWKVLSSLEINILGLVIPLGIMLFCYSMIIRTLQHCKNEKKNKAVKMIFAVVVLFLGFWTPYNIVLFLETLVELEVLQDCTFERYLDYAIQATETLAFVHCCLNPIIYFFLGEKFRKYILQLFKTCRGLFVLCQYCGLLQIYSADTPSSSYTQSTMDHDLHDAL
As to the kind of experiment: cell-based or functional assay.

Assay [2] concerns the target T1, human CC chemokine receptor 4 (CCR4). As to the kind of experiment: flow cytometry competition on CCRF-CEM cells; IgG titrated, competitor biotinylated TARC (ca. 20 nM). The procedure: The competition binding assays were performed with biotinylated MDC or biotinylated TARC on DT-40-CCR4+ and CCRF-CEM cells. DT40 and CCRF-CEM cells were cultured as described in Example 2. TARC and MDC were biotinylated using standard procedures. The biotinylation process causes some losses, so the concentrations of biotinylated MDC and TARC recited herein are approximate.
The cells were harvested from culture flasks, washed 2 times with PBS (400×g, 5 min, 4° C.) and resuspended in PBS containing 0.2% BSA and 0.09% NaN3. 1×10^5 cells per well were aliquoted into V-shaped 96-well plates (Greiner Bio-One, Frikenhausen, Germany). Cells were centrifuged (400×g, 5 min, 4° C.) and resuspended in 50 μl IgG, single chain or unlabeled ligand (1:10 dilution series starting on 100/500/26, 4 μg/ml) mixed with a fixed concentration of biotinylated ligand (10 or 20 nM, see legend to FIG. 24). The cells were incubated for 2 hours at 4° C. and mixed with a pipette every 45 min. The cells were washed three times with 150 μl PBS with 0.2% BSA and 0.09% NaN3 and stained with 3 μg/ml streptavidin PE (BD Biosciences) for 45 minutes at 4° C. […] Apparent binding affinities (KD) were calculated according to the following equation derived from previously described methods (Kipriyanov et al, 1997b; Schodin & Kranz, 1993): […]

Assay [3] has the same target. The assay is described as follows: flow cytometry, IgG titration on CCRF-CEM cells; one site-specific binding fit (Prism). On the procedure:
(§1) The IgG forms of antibodies 17G, 9E and KM3060var using various CCR4⁺ cell types were used (see Example 2).
(§2) For the flow cytometry experiments, the cells were harvested from the culture flasks, washed 2 times with PBS, re-suspended in PBS with 0.2% BSA and 0.09% NaN₃ and finally aliquoted 1×10⁵ cells per well into V-shaped 96-well plates (Greiner Bio-One, Frickenhausen, Germany). Cells were centrifuged at 400×g for 5 min and then incubated at 4° C. for 45 min with different antibody dilutions.
(§3) After washing with PBS with 0.2% BSA and 0.09% NaN₃, the cells were stained with 10 μg/ml of RPE-conjugated goat anti-human IgG (AbDSerotec, Düsseldorf, Germany) for 30 minutes at 4° C. The stained cells were washed, re-suspended in 200 μl PBS with 0.2% BSA and 0.09% NaN₃ and transferred to a U-shaped 96-well plate (Corning, Schiphol-Rijk, The Netherlands) for acquisition on EasyCyte flow cytometer (Guava Technologies, Hayward, Calif., USA).

Assay [4] has the same target. As to the kind of experiment: flow cytometry, IgG titration on CCRF-CEM cells (natural CCR4+), triplicates, RPE goat anti-human IgG, Median (YLW-HLog).
From the text: As a positive control, in-house cloned and expressed KM3060var IgG which is specific for an epitope present in positions 2-29 in N-terminal part of human CCR4 (EP1270595) was used. An anti-GFP antibody (raised against the green fluorescent protein) or the anti-VZV antibody (raised against Varicella zoster virus) were used as negative controls (anti-GFP both as scFv and IgG, while anti-VZV only as scFv).
as §2, §3
For orientation: A flow cytometer gives signals particle by particle.

The target is the same in assay [5]. As to the kind of experiment: flow cytometry, IgG titration on CCR4+ DT40 cells (2); one site-specific binding fit (Prism). On the procedure: as §1, §2, §3
Assay [6] has the same target. The assay is described as follows: calculated from the IC50 (KD=IC50/(1+[bio-IgG 9E]/KD 9E)); DT-40-CCR4+ cells, competitor 3.3 nM biotinylated IgG 9E. The procedure: DT40 and CCRF-CEM cells were cultivated as described in Example 2. The cells were harvested from culture flasks, washed 2 times with PBS (400×g, 5 min, 4° C.) and resuspended in PBS containing 0.2% BSA and 0.09% NaN3. 1×10^5 cells per well were aliquoted into V-shaped 96-well plates (Griner Bio-One, Frikenhausen, Germany). Cells were centrifuged (400×g, 5 min, 4° C.) and resuspended in 50 μl IgG 9E10J or KM3060var (dilution series starting at 5 μg/ml) mixed with biotinylated competitor antibody 9E (0.1 or 0.5 μg/ml). The cells were incubated for 2 hours at 4° C., mixing with a pipette every 45 min. The cells were washed three times with 150 μl PBS with 0.2% BSA and 0.09% NaN3 and stained with 3 μg/ml streptavidin PE (BD Biosciences) for 45 minutes at 4° C. Cells were washed, resuspended in 200 μl PBS with 0.2% BSA and 0.09% NaN3, and transferred to a U-shaped 96 well Costar (Corning, Schiphol-Rijik, The Netherlands) plate for flow cytometry using an FACS Canto II flow cytometer (BD Biosciences, Heidelberg, Germany).

The target is the same in assay [7]. As to the kind of experiment: cell-based or functional assay. The source holds these as a separate data set.
Assay [8] has the same target. The assay is described as follows: flow cytometry, IgG titration on CCR4+ HEK293T cells; one site-specific binding fit (Prism). On the procedure: as §1, §2, §3

Positions count from the first letter of the chain named. Several values for one entry are separate records, joined by “and”; a condition that tells them apart may be missing. Identical values can stand only once.

B1: 9E10J IgG (full length human IgG1, lambda) (antibody, V domains shown)
VH: QVQLVQSGAEVKKPGSSVKVSCKASGGTFSSYAISWVRQAPGQGLEWMGGIIPIFGTANYAQKFQGRVTMTRDTSTSTVYMELSSLRSEDTAVYYCARRGGSYFDYWGQGTLVTVSS
VL: SYVLTQPPSASGTPGQSVTISCSGSTSNIGSHYVFWYQQLPGTAPRLLIYRNHQRPSGVPDRLSGSKSGTSASLAISGLRSEDEADYYCAVWDDTLSGWVFGGGTKLTVLG
notes: also called IgG 9E10J; unmodified 9E10J
For B1, in assay [1], the “ADCC of CCRF-CEM cells, EC50 (mean, N=2)” value came out at 0.0087 µg/mL. Besides, the IC50 in assay [2] is 4.26 nM and 4.57 nM.

B2: 9E IgG (full length human IgG1, lambda) (antibody, V domains shown)
VH: B1 VH with S31N, M70I, R72A, T74E, V79A
VL: B1 VL
notes: also called IgG 9E; IgG1 9E
B2: the Kd in assay [3] is 0.39 nM; in assay [5] it was 0.17 nM; in assay [6], 2.1 nM; in assay [8], 0.36 nM. The “EC50 (read off the curve)” value in assay [4] was about 0.4 nM. For the same molecule, the “ADCC of CCRF-CEM cells with human PBMCs, EC50” value in assay [7] stood at 0.046 µg/mL. In addition, the “Ca++ flux in CCRF-CEM cells: signal response to MDC stimulation (% of MDC in the absence of IgGs), IgG 10 µg/mL” value in assay [7] stood at 64%. The “Ca++ flux in CCRF-CEM cells: signal response to TARC stimulation (% of TARC alone), IgG 10 µg/mL” value in assay [7] was 3%.

A word on the IC50: it is the point on the concentration scale where inhibition reaches its midpoint. One may read the Kd as the constant that tells how readily two partners part at equilibrium. As a reminder, the EC50 (read off the curve) is the midpoint of the concentration-response curve. A low value points to a more potent agent.
